According to US20130189747A1, “Compositions Comprising A Polypeptide Having Cellulolytic Enhancing Activity And A Sulfur-Containing Compound And Uses Thereof” (priority 2010, published 2013):
Entries after “also recorded” stand apart in the source; their conditions may differ.

Key:
Format in all cases: biochemical
[1] = test system: Trichoderma reesei cellulase composition; experiment: Hydrolysis of AVICEL® (microcrystalline cellulose) by the Trichoderma reesei cellulase composition with/without GH61 polypeptide and sulfur-containing compound
Description: (§1) The effect of various sulfur-containing compounds on the cellulolytic enhancing activity of GH61 polypeptides was evaluated according to the procedures described below.

[2] = test system: Trichoderma reesei cellulase composition; experiment: Hydrolysis of milled unwashed pretreated corn stover (PCS) by the Trichoderma reesei cellulase composition with/without GH61 polypeptide and sulfur-containing compound; details: for Enhancement of hydrolysis of milled unwashed PCS by the GH61 polypeptide: no sulfur-containing compound
Description: as §1

[3] = test system: Trichoderma reesei cellulase composition; experiment: Hydrolysis of milled washed pretreated corn stover (PCS) by the Trichoderma reesei cellulase composition with/without GH61 polypeptide and sulfur-containing compound; details: for Enhancement of hydrolysis of milled washed PCS by the GH61 polypeptide: no sulfur-containing compound; for GH61 effect (Equation 4): in the absence of L-cysteine (Example 4); for Percent conversion of milled washed PCS: no L-cysteine
Description: as §1

B1: T. aurantiacus GH61A polypeptide: GH61A polypeptide having cellulolytic enhancing activity (SEQ ID NO: 14), recombinantly prepared in Aspergillus oryzae JaL250 (protein, listed as Thermoascus aurantiacus)
chain: MSFSKIIATAGVLASASLVAGHGFVQNIVIDGKYYGGYLVNQYPYMSNPPEVIAWSTTATDLGFVDGTGYQTPDIICHRGAKPGALTAPVSPGGTVELQWTPWPDSHHGPVINYLAPCNGDCSTVDKTQLEFFKIAESGLINDDNPPGIWASDNLIAANNSWTVTIPTTIAPGNYVLRHEIIALHSAQNQDGAQNYPQCINLQVTGGGSDNPAGTLGTALYHDTDPGILINIYQKLSSYIIPGPPLYTG
B1 was tested, and the “GH61 effect (Equation 4)” value ([1]; AVICEL®, day 1, in the absence of L-cysteine, all GH61 concentrations tested (5.6, 14, 28 mg per liter), FIG. 3B) was 1, the “GH61 polypeptide concentration at which the GH61 effect was maximal” value ([1]; AVICEL®, day 1, intermediate L-cysteine concentrations, FIG. 3B) was “approximately 15 mg per liter” and the “Effect of the GH61 polypeptide on hydrolysis of AVICEL® (microcrystalline cellulose) by the T. reesei cellulase composition” value ([1]; in the absence of a sulfur-containing compound) was “did not enhance; also recorded: no detectable effect”. The “Enhancement of hydrolysis of milled unwashed PCS by the GH61 polypeptide” value ([2]; 1 day) was 19%, the “Enhancement of hydrolysis of milled unwashed PCS by the GH61 polypeptide” value ([2]; 3 days) was 21% and the “Enhancement of hydrolysis of milled unwashed PCS by the GH61 polypeptide” value ([2]; 7 days) was 19%. For the same molecule, the “GH61 effect (Equation 4)” value ([2]; milled unwashed PCS, 7 days, in the absence of L-cysteine (Example 4)) was 1.19±0.08, the “Enhancement of hydrolysis of milled washed PCS by the GH61 polypeptide” value ([3]; 1 day) was 14% and the “Enhancement of hydrolysis of milled washed PCS by the GH61 polypeptide” value ([3]; 3 days) was 31%. The “Enhancement of hydrolysis of milled washed PCS by the GH61 polypeptide” value ([3]; 7 days) was 31%, the “GH61 effect (Equation 4)” value ([3]; PCS, 3 days) was 1.31±0.030 and the “Percent conversion of milled washed PCS” value ([3]; day 1, GH61 polypeptide at 10% (w/w) of the cellulase composition (2 mg per g cellulose)) was 27±0.8%. The “Percent conversion of milled washed PCS” value ([3]; day 1, GH61 polypeptide at 25% (w/w) of the cellulase composition (2 mg per g cellulose)) was 27±0.8%, the “Percent conversion of milled washed PCS” value ([3]; day 1, GH61 polypeptide at 50% (w/w) of the cellulase composition (2 mg per g cellulose)) was 27±0.8% and the “Percent conversion of milled washed PCS” value ([3]; day 3, GH61 polypeptide at 10% (w/w) of the cellulase composition (2 mg per g cellulose)) was 55±3%. For the same molecule, the “Percent conversion of milled washed PCS” value ([3]; day 3, GH61 polypeptide at 25% (w/w) of the cellulase composition (2 mg per g cellulose)) was 57±0.5%, the “Percent conversion of milled washed PCS” value ([3]; day 3, GH61 polypeptide at 50% (w/w) of the cellulase composition (2 mg per g cellulose)) was 59±2% and the “GH61 effect (Equation 4)” value ([3]; milled washed PCS, 7 days) was “approximately 1.31±0.03”.
